Experimental data published in patent US20240352445A1 (published 2024).

Key:
[1] = molecular target: SARS-CoV-2 spike protein trimer, wild type (SARS-CoV-2, UniProt P0DTC2 16-1213)

Binder | IC50 (Epsilon (B.1.427)) [mg/L] | IC50 [1] [mg/L]
hN2F (antibody, V domains shown) VH: EVQLVESGGGLVQPGGSLRLSCTVSGFSLSTYAMSWVRQAPGKGLEWIGVIASNADTYYASWAKGRFTISRDNSKNTLYLQMNSLRAEDTAVYYCARHPGSAGYGYAVYYAMDPWGQGTLVTVSS VL: DIQMTQSPSSLSASVGDRVTITCKASEDIRYGLNWYQQKPGKAPKLLIYGANTLEAGVPSRFSGSGSGTDFTLTISSLQPEDFATYYCQQGYSTPLTFGGGTKVEIK | 0.0178 | 
hN2Y (antibody, V domains shown) VH: EVQLVESGGGLVQPGGSLRLSCTVSGFSLSTYAMSWVRQAPGKGLEWIGVIASNADTYYASWAKGRFTISRDNSKNTLYLQMNSLRAEDTAVYYCARHPGSAGYGYAVYYAMDPWGQGTLVTVSS VL: DIQMTQSPSSLSASVGDRVTITCKASEDIRYGLNWYQQKPGKAPKLLIYGANTLEAGVPSRFSGSGSGTDYTLTISSLQPEDFATYYCQQGYSTPLTFGGGTKVEIK | 0.018 | 
humanized antibody hN2F (antibody, V domains shown) VH: EVQLVESGGGLVQPGGSLRLSCTVSGFSLSTYAMSWVRQAPGKGLEWIGVIASNADTYYASWAKGRFTISRDNSKNTLYLQMNSLRAEDTAVYYCARHPGSAGYGYAVYYAMDPWGQGTLVTVSS VL: DIQMTQSPSSLSASVGDRVTITCKASEDIRYGLNWYQQKPGKAPKLLIYGANTLEAGVPSRFSGSGSGTDFTLTISSLQPEDFATYYCQQGYSTPLTFGGGTKVEIK |  | 0.0246
humanized antibody hN2Y (antibody, V domains shown) VH: EVQLVESGGGLVQPGGSLRLSCTVSGFSLSTYAMSWVRQAPGKGLEWIGVIASNADTYYASWAKGRFTISRDNSKNTLYLQMNSLRAEDTAVYYCARHPGSAGYGYAVYYAMDPWGQGTLVTVSS VL: DIQMTQSPSSLSASVGDRVTITCKASEDIRYGLNWYQQKPGKAPKLLIYGANTLEAGVPSRFSGSGSGTDYTLTISSLQPEDFATYYCQQGYSTPLTFGGGTKVEIK |  | 0.0382
LxC1-G10 (antibody, V domains shown) VH: EVQLVESGGGLVQPGGSLRLSCTVSGFSLSTYAMSWVRQAPGKGLEWIGVIASNADTYYASWAKGRFTISRDNSKNTLYLQMNSLRAEDTAVYYCARHPGSAGYGYAVYYAMDPWGQGTLVTVSS VL: DIQMTQSPSSLSASVGDRVTITCQASERVFYGIDWYQQKPGKAPKLLIYGASALWHGVPSRFSGSGSGTDYTLTISSLQPEDFATYYCQQGYMVPIGFGGGTKVEIK | 0.0169 | 
C-A11 (antibody, V domains shown) VH: QSLEESGGRLVTPGTPLTLTCTVSGFSLSTYAMSWVRQAPGKGLEWIGVIASNADTYYASWAKGRITISKTSTTVDLKITSPTTEDTATYFCARHPGSAGYGYAVYYAMDPWGPGTLVTVSS VL: AIEMTQSPSSLAASVGDTVTITCKASEDIRYGLNWYQQKLGIAPKLLIYGANTLEAGVPSRFSGSGSETDYTLTISSVQAEDAGIYYCQQGYSTPLTFGAGTKVEIK | 0.014 | 
rabbit monoclonal antibody C-A11 (antibody, V domains shown) VH: QSLEESGGRLVTPGTPLTLTCTVSGFSLSTYAMSWVRQAPGKGLEWIGVIASNADTYYASWAKGRITISKTSTTVDLKITSPTTEDTATYFCARHPGSAGYGYAVYYAMDPWGPGTLVTVSS VL: AIEMTQSPSSLAASVGDTVTITCKASEDIRYGLNWYQQKLGIAPKLLIYGANTLEAGVPSRFSGSGSETDYTLTISSVQAEDAGIYYCQQGYSTPLTFGAGTKVEIK |  | 0.027
